Measured values published in paper doi:10.1101/2024.03.21.586168 (bioRxiv, 2024).

T1: recombinant CD135 (Flt3) (UniProt Q00342 28-544)
T1 sequence (looked up): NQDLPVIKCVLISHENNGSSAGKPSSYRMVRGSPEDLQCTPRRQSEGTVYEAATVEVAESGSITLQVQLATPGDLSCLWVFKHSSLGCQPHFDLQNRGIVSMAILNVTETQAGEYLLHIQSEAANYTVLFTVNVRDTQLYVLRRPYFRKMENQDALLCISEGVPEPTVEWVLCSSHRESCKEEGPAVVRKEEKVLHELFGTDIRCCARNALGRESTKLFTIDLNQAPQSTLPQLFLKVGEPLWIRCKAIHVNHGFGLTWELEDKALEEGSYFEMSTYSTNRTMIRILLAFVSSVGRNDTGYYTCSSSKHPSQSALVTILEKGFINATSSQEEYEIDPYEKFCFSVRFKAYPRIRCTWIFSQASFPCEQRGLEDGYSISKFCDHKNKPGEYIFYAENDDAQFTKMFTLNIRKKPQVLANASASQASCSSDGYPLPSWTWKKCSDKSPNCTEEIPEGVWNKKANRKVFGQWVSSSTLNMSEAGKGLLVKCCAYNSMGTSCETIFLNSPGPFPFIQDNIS


Experiments:
recombinant CD135 (Flt3) [1] = target: recombinant CD135 (Flt3) (UniProt Q00342); test: ELISA
recombinant CD135 (Flt3) [2] = target: T1, recombinant CD135 (Flt3); test: ELISA

Molecule	Kd (recombinant CD135 (Flt3) [1]) [nM]	Kd (recombinant CD135 (Flt3) [2]) [nM]
Flt3L-SA (murine Flt3L fused at its C terminus to murine serum albumin through a (G4S)2 linker)	0.16	
native, soluble murine Flt3L (WT) (ligand, mouse, UniProt P49772 27-189, looked up) GTPDCYFSHSPISSNFKVKFRELTDHLLKDYPVTVAVNLQDEKHCKALWSLFLAQRWIEQLKTVAGSKMQTLLEDVNTEIHFVTSCTFQPLPECLRFVQTNISHLLKDTCTQLLALKPCIGKACQNFSRCLEVQCQPDSSTLLPPRSPIALEATELPEPRPRQ		0.16
